Experiments:
Experiment in all cases: cell-based or functional assay
[1] = biological target: Ce1086_B2 Env pseudovirus (HIV-1)
[2] = biological target: BF1266.431a Env pseudovirus (HIV-1)
[3] = biological target: Du422.1 Env pseudovirus (HIV-1)
[4] = biological target: Ce1172_H1 Env pseudovirus (HIV-1)
[5] = biological target: CNE19 Env pseudovirus (HIV-1)
[6] = biological target: WITO4160.33 Env pseudovirus (HIV-1)
[7] = biological target: 1394C9G1(Rev-) Env pseudovirus (HIV-1)
[8] = biological target: 928-28 Env pseudovirus (HIV-1)
[9] = biological target: HIV-0013095-2.11 Env pseudovirus (HIV-1)
[10] = biological target: 249M B10 Env pseudovirus (HIV-1)
[11] = biological target: CNE58 Env pseudovirus (HIV-1)
[12] = biological target: CAP45.2.00.G3 Env pseudovirus (HIV-1)
[13] = biological target: 191084 B7-19 Env pseudovirus (HIV-1)
[14] = biological target: CNE20 Env pseudovirus (HIV-1)
[15] = biological target: QH0692.42 Env pseudovirus (HIV-1)
[16] = biological target: ZM135M.PL10a Env pseudovirus (HIV-1)
[17] = biological target: AC10.0.29 Env pseudovirus (HIV-1)
[18] = biological target: 3415.v1.c1 Env pseudovirus (HIV-1)
[19] = biological target: 6240_08_TA5_4622 Env pseudovirus (HIV-1)
[20] = biological target: 6535.3 Env pseudovirus (HIV-1)
[21] = biological target: 6244_13_B5_4576 Env pseudovirus (HIV-1)
[22] = biological target: 3365.v2.c2 Env pseudovirus (HIV-1)
[23] = biological target: Ce2010_F5 Env pseudovirus (HIV-1)
[24] = biological target: ZM233M.PB6 Env pseudovirus (HIV-1)
[25] = biological target: 263-8 Env pseudovirus (HIV-1)
[26] = biological target: ZM214M.PL15 Env pseudovirus (HIV-1)
[27] = biological target: REJO4541.67 Env pseudovirus (HIV-1)
[28] = biological target: SC422661.8 Env pseudovirus (HIV-1)
[29] = biological target: Du172.17 Env pseudovirus (HIV-1)
[30] = biological target: CNE30 Env pseudovirus (HIV-1)
[31] = biological target: 191955_A11 Env pseudovirus (HIV-1)
[32] = biological target: ZM247v1(Rev-) Env pseudovirus (HIV-1)
[33] = biological target: Ce704809221_1B3 Env pseudovirus (HIV-1)
[34] = biological target: Q842.d12 Env pseudovirus (HIV-1)
[35] = biological target: CAAN5342.A2 Env pseudovirus (HIV-1)
[36] = biological target: Q23.17 Env pseudovirus (HIV-1)

B1: N49P23 (antibody, V domains shown)
VH: QVRLVQSGAGARKTGASMKLSCSTSGYTFTTHHGHFINWVRQARGQGLEWMGWMNPMTGQMNIEGKFQGRVTLTRDIYSDTAYMEMTRLTTGDTGTYYCARGDFGQNYPFHYWGQGSLVIVSS
VL: LSALTQPASVSGSPGQSVTISCSGTNRYLVSWYQQHPDKAPKLIIYDDNKRPSGISDRFSASRPDDTASLTISGLQTGDEATYWCASYERFGGGTRLTVLS
IC50 [1]: 0.063 µg/mL | IC80 [1]: 0.303 µg/mL | MPI [1]: 100 | IC50 [2]: 0.083 µg/mL | IC80 [2]: 0.44 µg/mL | MPI [2]: 99 | IC50 [3]: > 50 µg/mL | IC80 [3]: > 50 µg/mL | MPI [3]: 4 | IC50 [4]: > 50 µg/mL | IC80 [4]: > 50 µg/mL | MPI [4]: 0 | IC50 [5]: > 50 µg/mL | IC80 [5]: > 50 µg/mL | MPI [5]: 40 | IC50 [6]: 0.045 µg/mL | IC80 [6]: 0.205 µg/mL | MPI [6]: 100 | IC50 [7]: > 50 µg/mL | IC80 [7]: > 50 µg/mL | MPI [7]: 34 | IC50 [8]: 0.021 µg/mL | IC80 [8]: 0.122 µg/mL | MPI [8]: 100 | IC50 [9]: 0.114 µg/mL | IC80 [9]: 0.899 µg/mL | MPI [9]: 96 | IC50 [10]: > 50 µg/mL | IC80 [10]: > 50 µg/mL | MPI [10]: 20 | IC50 [11]: > 50 µg/mL | IC80 [11]: > 50 µg/mL | MPI [11]: 9 | IC50 [12]: > 50 µg/mL | IC80 [12]: > 50 µg/mL | MPI [12]: 0 | IC50 [13]: 0.013 µg/mL | IC80 [13]: 0.043 µg/mL | MPI [13]: 100 | IC50 [14]: 45.4 µg/mL | IC80 [14]: > 50 µg/mL | MPI [14]: 51 | IC50 [15]: 0.557 µg/mL | IC80 [15]: 2.51 µg/mL | MPI [15]: 100 | IC50 [16]: > 50 µg/mL | IC80 [16]: > 50 µg/mL | MPI [16]: 36 | IC50 [17]: > 50 µg/mL | IC80 [17]: > 50 µg/mL | MPI [17]: 0 | IC50 [18]: 0.054 µg/mL | IC80 [18]: 0.19 µg/mL | MPI [18]: 100 | IC50 [19]: 0.215 µg/mL | IC80 [19]: 1 µg/mL | MPI [19]: 100 | IC50 [20]: 0.127 µg/mL | IC80 [20]: 0.855 µg/mL | MPI [20]: 100 | IC50 [21]: 0.151 µg/mL | IC80 [21]: 0.57 µg/mL | MPI [21]: 100 | IC50 [22]: 0.017 µg/mL | IC80 [22]: 0.053 µg/mL | MPI [22]: 100 | IC50 [23]: 1.59 µg/mL | IC80 [23]: 11.6 µg/mL | MPI [23]: 91 | IC50 [24]: > 50 µg/mL | IC80 [24]: > 50 µg/mL | MPI [24]: 14 | IC50 [25]: 0.012 µg/mL | IC80 [25]: 0.096 µg/mL | MPI [25]: 100 | IC50 [26]: 0.061 µg/mL | IC80 [26]: 0.614 µg/mL | MPI [26]: 100 | IC50 [27]: 0.008 µg/mL | IC80 [27]: 0.05 µg/mL | MPI [27]: 100 | IC50 [28]: 0.069 µg/mL | IC80 [28]: 0.245 µg/mL | MPI [28]: 100 | IC50 [29]: > 50 µg/mL | IC80 [29]: > 50 µg/mL | MPI [29]: 45 | IC50 [30]: 0.143 µg/mL | IC80 [30]: 0.68 µg/mL | MPI [30]: 100 | IC50 [31]: > 50 µg/mL | IC80 [31]: > 50 µg/mL | MPI [31]: 31 | IC50 [32]: > 50 µg/mL | IC80 [32]: > 50 µg/mL | MPI [32]: 24 | IC50 [33]: 0.083 µg/mL | IC80 [33]: 0.643 µg/mL | MPI [33]: 100 | IC50 [34]: 0.007 µg/mL | IC80 [34]: 0.022 µg/mL | MPI [34]: 100 | IC50 [35]: 0.412 µg/mL | IC80 [35]: 1.38 µg/mL | MPI [35]: 100 | IC50 [36]: 0.01 µg/mL | IC80 [36]: 0.046 µg/mL | MPI [36]: 100
